Experimental data from patent publication US20230348629A1 (BEIJING MABWORKS BIOTECH, published 2023).

B1: 70E11VH2VL4 (antibody, human IgG1, kappa, V domains shown)
VH: QVQLVQSGAEVKKPGASVKVSCKASGYTFTSYNVHWVRQAPGQGLEWMGTIYPGNLATSYNQKFKGRVTLTADTSTSTVYMELSSLRSEDTAVYYCARSGTMDYWGQGTTVTVSS
VL: EIVLTQSPGTLSLSPGERATMTCRASSSISSTYLHWYQQKPGASPKLLIYNTQNLASGVPARFSGSGSGTSYTLTISRLEPEDFAVYYCQQFGGYPLITFGAGTKLELKR
notes: Humanized anti-TIGIT antibody, human IgG1 and kappa constant regions; also called anti-TIGIT antibody 70E11VH2VL4; monospecific anti-TIGIT antibody
B2: MBS310-6 (bispecific antibody, human IgG1, kappa)
heavy 1: not shown
heavy 2: not shown
light 1: not shown
light 2: EIVLTQSPGTLSLSPGERATMTCRASSSISSTYLHWYQQKPGASPKLLIYNTQNLASGVPARFSGSGSGTSYTLTISRLEPEDFAVYYCQQFGGYPLITFGAGTKLELKRTVAAPSVFIFPPSDEQLKSGTASVVCLLNNFYPREAKVQWKVDNALQSGNSQESVTEQDSKDSTYSLSSTLTLSKADYEKHKVYACEVTHQGLSSPVTKSFNRGEC
notes: two half antibodies (knob and hole) expressed in HEK-293F cells and assembled in vitro; also called asymmetrical anti-VEGF/TIGIT bispecific antibody; anti-TIGIT/VEGF bispecific antibody
B3: MBS310-4 (bispecific antibody, human IgG1, kappa)
heavy: not shown
light: B2 light 2
notes: also called symmetrical anti-VEGF/TIGIT bispecific antibody
B4: bevacizumab (antibody, V domains shown)
VH: EVQLVESGGGLVQPGGSLRLSCAASGYTFTNYGMNWVRQAPGKGLEWVGWINTYTGEPTYAADFKRRFTFSLDTSKSTAYLQMNSLRAEDTAVYYCAKYPHYYGSSHWYFDVWGQGTLVTVSS
VL: DIQMTQSPSSLSASVGDRVTITCSASQDISNYLNWYQQKPGKAPKVLIYFTSSLHSGVPSRFSGSGSGTDFTLTISSLQPEDFATYYCQQYSTVPWTFGQGTKVEIKR
notes: also called Avastin bevacizumab

Experiments:
[1] = biological target: T1, human TIGIT on HEK293A/human TIGIT cells (human, UniProt Q495A1 22-244); test: FACS on HEK293A/human TIGIT cells, antibody titrated, MFI
T1 construct: also called cell surface human TIGIT; human TIGIT-expressing HEK293A cells
T1 sequence: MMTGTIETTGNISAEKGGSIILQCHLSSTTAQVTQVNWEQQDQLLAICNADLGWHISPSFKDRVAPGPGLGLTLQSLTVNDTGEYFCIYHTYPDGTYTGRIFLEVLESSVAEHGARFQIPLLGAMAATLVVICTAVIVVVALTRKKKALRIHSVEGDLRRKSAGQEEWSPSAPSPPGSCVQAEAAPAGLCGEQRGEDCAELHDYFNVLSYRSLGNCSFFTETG
Description: (§1) Briefly, 10⁵ HEK293A cells in 100 μl cell culture medium were seeded onto a 96-well plate, which was later added with 50 μl serially diluted bispecific antibodies of the disclosure. After incubation at 4° C. for 1 h, the plate was washed with PBS for three times, added with APC-goat-anti-mouse IgG (1:500, Cat #: 405308, BioLegend, USA). After incubation at 4° C. for 1 h, the plate was washed with PBS for three times, and measured for fluorescence using a cytometry (BD).

[2] = biological target: T2, TIGIT-mFc molecules (Cat #: 10917-H38H, Sino Biological) (UniProt Q495A1 22-141); test: FACS blocking assay: antibody titrated and premixed with 5 ug/ml TIGIT-mFc, binding of TIGIT-mFc to human PVR on A549/human PVR cells
T2 construct: not shown: mFc (mouse Fc)
T2 sequence (looked up): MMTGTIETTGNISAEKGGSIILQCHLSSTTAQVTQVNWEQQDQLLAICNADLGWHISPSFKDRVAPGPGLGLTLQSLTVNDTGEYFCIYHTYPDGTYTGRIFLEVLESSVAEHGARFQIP
Description: After incubation at 4° C. for 1 h, the plate was washed with PBS for three times, and then added with PE-goat-anti-mouse IgG (1:500, Cat #:31861, Thermofisher, USA). After incubation at 4° C. for 1 h, the plate was washed with PBS for three times, and measured for fluorescence using a cytometry (BD).

[3] = biological target: T3, monkey TIGIT on HEK293A/monkey TIGIT cells (monkey); test: FACS on HEK293A/monkey TIGIT cells, antibody titrated, MFI
T3 construct: also called cell surface monkey TIGIT
T3 sequence (chain, as listed by the source limits assumed): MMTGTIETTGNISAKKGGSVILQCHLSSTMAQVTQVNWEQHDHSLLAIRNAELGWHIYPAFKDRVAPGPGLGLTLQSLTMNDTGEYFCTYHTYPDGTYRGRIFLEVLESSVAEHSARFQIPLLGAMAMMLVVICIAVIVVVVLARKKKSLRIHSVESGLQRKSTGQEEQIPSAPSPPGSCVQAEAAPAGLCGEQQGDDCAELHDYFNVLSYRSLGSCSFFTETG
Description: as §1

[4] = biological target: T4, human TIGIT-his protein (Cat #:10917-H08H, Sino Biological) (human, UniProt Q495A1 22-141); test: SPR (BIAcore 8K), human TIGIT-his coupled to the chip, antibody injected
T4 construct: Bought soluble protein; also called TIGIT molecules; not shown: his tag
T4 sequence: T2 sequence (looked up)
Description: (§2) Using BIAcore™ 8K instrument (GE Life Sciences, US), the binding affinity of the bispecific molecules of the disclosure to human TIGIT and VEGF was quantitatively measured. Briefly, 100-200 response units (RU) of human TIGIT-his protein (Cat #:10917-H08H, Sino Biological, CN) or human VEGF-A (Cat #:11066-HNAN, Sino Biological, CN) were coupled to CMS biosensor chips (Cat #:BR-1005-30, GE Life Sciences, US). The un-reacted groups were then blocked with 1M ethanolamine Serially diluted antibodies at concentrations ranging from 0.3 μM to 10 μM were injected into the SPR running buffer (HBS-EP buffer, pH7.4, Cat #:BR-1006-69, GE Life Sciences, US) at 30 μL/min. The binding affinity was calculated with the RUs of blank controls subtracted, and the association rate (kₐ) and dissociation rate (kd) were determined using the one-to-one Langmuir binding model (BIA Evaluation Software, GE Life Sciences, US). The equilibrium dissociation constant KD was calculated as the kd/kₐ ratio.

[5] = biological target: T1, human TIGIT on HEK293A/human TIGIT cells; test: cell-based or functional assay
[6] = biological target: T1, human TIGIT on HEK293A/human TIGIT cells; test: FACS on HEK293A/human TIGIT cells, antibody titrated, no free VEGF-A
Description: as §1, with “of the disclosure and 50 μl free human VEGF-A molecules at the final concentration of 0 ng/ml, 50 ng/ml or 50 μg/ml (Cat #:11066-HNAN, Sino Biological, CN). After incubation” for “of the disclosure. After incubation”, “three times, and added with” for “three times, added with”

[7] = biological target: T1, human TIGIT on HEK293A/human TIGIT cells; test: as above; remark: listed apart in the source
Description: as §1, with “of the disclosure and 50 μl free human VEGF-A molecules at the final concentration of 0 ng/ml, 50 ng/ml or 50 μg/ml (Cat #:11066-HNAN, Sino Biological, CN). After incubation” for “of the disclosure. After incubation”, “three times, and added with” for “three times, added with”

[8] = biological target: T5, human VEGF-A molecules (Cat #:11066-HNAN, Sino Biological) (human, UniProt P15692-4 27-191); test: ELISA, plate coated with human VEGF-A, antibody titrated, OD450
T5 construct: Bought protein; also called human/monkey VEGF; VEGF molecules
T5 sequence (P15692 other isoform, or with tags, fused parts or gaps limits assumed): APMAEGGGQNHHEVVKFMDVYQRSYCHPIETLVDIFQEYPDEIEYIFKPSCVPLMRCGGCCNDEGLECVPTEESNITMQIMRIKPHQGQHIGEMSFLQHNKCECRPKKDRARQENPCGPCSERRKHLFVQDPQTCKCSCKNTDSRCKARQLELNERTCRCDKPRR
Description: (§3) Briefly, an ELISA plate was coated with 100 μl 500 ng/ml human VEGF-A molecules (Cat #:11066-HNAN, Sino Biological, CN), mouse VEGF-A molecules (Cat #:50159-MNAB, Sino Biological, CN), human VEGF-B-his molecules (Cat #:VE6-H5225, Acrobiosystems Co., CN) and human VEGF-C-his molecules (Cat #:VEC-H4225, Acrobiosystems Co., CN) respectively overnight at 4° C. […] The ELISA plate was added with freshly prepared Ultra-TMB (Cat #:555214, BD, USA), and left still for 5 min for color development. The absorbance was read at 450 nm using SpectraMax® i3X microplate reader.

[9] = biological target: T1, human TIGIT on HEK293A/human TIGIT cells; test: FACS on HEK293A/human TIGIT cells, antibody titrated in the presence of 50 ug/ml free human VEGF-A
Description: as §1, with “of the disclosure and 50 μl free human VEGF-A molecules at the final concentration of 0 ng/ml, 50 ng/ml or 50 μg/ml (Cat #:11066-HNAN, Sino Biological, CN). After incubation” for “of the disclosure. After incubation”, “three times, and added with” for “three times, added with”

[10] = biological target: T1, human TIGIT on HEK293A/human TIGIT cells; test: FACS on HEK293A/human TIGIT cells, antibody titrated in the presence of 50 ng/ml free human VEGF-A
Description: as §1, with “of the disclosure and 50 μl free human VEGF-A molecules at the final concentration of 0 ng/ml, 50 ng/ml or 50 μg/ml (Cat #:11066-HNAN, Sino Biological, CN). After incubation” for “of the disclosure. After incubation”, “three times, and added with” for “three times, added with”

[11] = biological target: T5, human VEGF-A molecules (Cat …); test: SPR (BIAcore 8K), human VEGF-A coupled to the chip, antibody injected
Description: as §2

[12] = biological target: T6, human VEGF-C-his molecules (Cat #:VEC-H4225, Acrobiosystems) (human, UniProt P49767 103-227, limits assumed); test: ELISA, plate coated with human VEGF-C-his, antibody titrated (axis labelled MFI)
T6 construct: Bought protein; not shown: his tag
T6 sequence (looked up): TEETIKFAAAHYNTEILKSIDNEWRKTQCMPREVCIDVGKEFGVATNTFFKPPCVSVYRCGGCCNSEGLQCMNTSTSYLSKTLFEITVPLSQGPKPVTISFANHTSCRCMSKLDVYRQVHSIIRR
Description: as §3

| Binder | EC50 (read off the curve) [1] [nM] | IC50 (read off the curve) [2] [nM] | EC50 (read off the curve) [3] [nM] | Kd [4] [nM] | EC50, NK92 (NK92MI-CD16a) cell-mediated ADCC, LDH release [5] [nM] | EC50, PBMC-mediated ADCC, death rate of GFP+ cells by FACS [5] [nM] | EC50 (read off the curve) [6] [nM] | EC50 (read off the curve) [7] [nM] | EC50 (read off the curve) [8] [nM] | EC50 (read off the curve) [9] [nM] | EC50 (read off the curve) [10] [nM] | Kd [11] [nM] | binding result [12] | binding result [8] |
| --- | --- | --- | --- | --- | --- | --- | --- | --- | --- | --- | --- | --- | --- | --- |
| B1 | ~0.4 | ~2 | ~0.2 | 8.05 | 0.142 | 0.162 | – | – | – | – | – | – | – | – |
| B2 | ~0.8 | ~4 | ~1 | 12.8 | 0.268 | 0.183 | ~1 | ~0.9 | ~0.6 | ~0.8 | ~1 | 0.166 | no binding (tested: about 100 nM (LOG.Con about 2)) | – |
| B3 | – | – | – | – | – | – | – | – | – | – | – | – | – | binds |
| B4 | – | – | – | – | – | – | – | – | – | – | – | – | no binding (tested: about 100 nM (LOG.Con about 2)) | – |
